Test [1] concerns the target Mouse LRP-8 expressed on HEK293 cells (mouse) (UniProt Q924X6). Nature of the test: mLRP8 cell binding.
Test [2] has the same target. The test is described as follows: cell-based ECL-MSD, 10 ug/ml Ab, mouse-LRP-8-HEK293.
Test [3] has the same target. The test is described as follows: FACS, mouse LRP8 cells.
For test [4] the target is unchanged. The test is described as follows: cell-based binding on MOUSE LRP8-HEK293, supernatant 1:5.
For test [5] the target is unchanged. Nature of the test: cell-based binding on MOUSE LRP8-HEK293, supernatant 1:125.
Test [6] shares this target. The test is described as follows: cell-based binding on MOUSE LRP8-HEK293, supernatant 1:25.
Test [7] has the same target. Nature of the test: cell-based binding assay, mLRP8.
Test [8] has the same target. Nature of the test: fit of the FACS titration of FIG. 12A on mLRP8-transfected HEK293 cells; the column head prints EC50 only, nM is from legend paragraph 78 and the axis of FIG. 12A.

The record followed here is patent US20160200813A1.

B1: humanized ML199-11H1.5B2VH.1/VL.1 (antibody, V domains shown)
VH: EVQLVESGGGLVKPGGSLRLSCAASRFTFSNYGMSWVRQAPGKGLEWVSTISSGGRYTYYPDSVKGRFTISRDNAKNSLYLQMNSLRAEDTAVYYCARDYLYAMDYWGQGTTVTVSS
VL: DIVMTQSPLSLPVTPGEPASISCRSSQSLVYSNGNTYLHWYLQKPGQSPQLLIYKVSNRFSGVPDRFSGSGSGTDFTLKISRVEAEDVGVYYCSQSTHVPLTFGQGTKLEIK
As for B1, in test [1], the EC50 (commonly the concentration at which the effect is half-maximal) was found to be 22.4 nM.

B2: humanized ML199-11H1.5B2VH.1/VL.1b (antibody, V domains shown)
VH: EVQLVESGGGLVKPGGSLRLSCAASRFTFSNYGMSWVRQAPGKGLEWVSTISSGGRYTYYPDSVKGRFTISRDNAKNSLYLQMNSLRAEDTAVYYCARDYLYAMDYWGQGTTVTVSS
VL: DVVMTQSPLSLPVTPGEPASISCRSSQSLVYSNGNTYLHWYLQKPGQSPQVLIYKVSNRFSGVPDRFSGSGSGTDFTLKISRVEAEDVGVYYCSQSTHVPLTFGQGTKLEIK
B2: the EC50 in test [1] was 7.92 nM.

B3: anti-LRP-8 antibody ab58216 (mFc) (antibody, V domains shown)
VH: EVHLQQSGPEVVKPGASVKISCKASGYIISGYFLNWVKQSHGKSLEWVGRINPYSGDTFFNQKFKGKATLTVDKSSNTAHMELRSLTSEDSAVFYCAREDIGRFAYWGQGTLVTVSA
VL: DVLMTQTPLSLPVSLGDQASISCRSSQTIVHSNGNTYLEWYLQKPGQSPKLLIYKVSNRFSGVPDRFSGSGSGTDFTLKISRVEAEDLGVYYCFQGSHAPPTFGGGTKLEIK
The molecule B3 yielded a fold over mIgG control in test [2] of 19.2 fold.

B4: anti-LRP-8 ML201-2B4.2B1.2H10 murine antibody (muFc) (antibody, V domains shown)
VH: DVKLVASGGGLVKPGGSLKLSCAASGFTLSRYAMSWVRQTPEKRLEWVAYIRNGGDYIYYADTVKGRFTISRDNARNTLYLQMSSLKSEDTAMYYCTREGSYYNFDYWGQGTTLTVSS
VL: DVLMTQTPLSLPVSLGDQASISCRSSQSIVHSNGNTYLEWYLQKPGQSPNLLIFKVSNRFSGVPDRFIGSGSGTDFTLKISRVEAEDLGVYYCFQGSHVPWTFGGGTKLEIK
B4 showed a fold over mIgG control in test [2] of 1.2 fold.

B5: anti-LRP-8 antibody CL-135325 (antibody, V domains shown)
VH: EVQLVQSGGGLVQPGGSLRLSCAASGFTFSIYAMSWVRQAPGKGLEWVSVISCSAGSTYYADSVKGRFTISRDNSKNTLYLQMNSLRAEDTAVYYCARHSVHEEFPFDVWGQGTLVTVSS
VL: DIQMTQSPSSLSASVGDRVTITCRASQSIGSYLNWYQQKPGKAPKLLIYAASSLQSGVPSRFSGSGSGTDFTLTISSLQPEDFATYYCQQSYIPPLTFGGGTKVEIK
Take B5: the FACS (ratio +/-) in test [3] is 21.2.

B6: anti-LRP-8 antibody CL-135359 (antibody, V domains shown)
VH: EVQLVQSGGGLVQPGGSLRLSCAASGFTFSSYAMSWVRQAPGKGLEWVSVISCSGGTTYYADSVKGRFTISRDNSKNTLYLQMNSLRAEDTAVYYCARNGGQFDLWGQGTLVTVSS
VL: DIQMTQSPSSLSASVGDRVTITCRASQGICTYLNWYQQKPGKAPKLLIYAASSLQSGVPSRFSGSGSGTDFTLTISSLQPEDFATYYCQQSYNPPLTFGGGTKVEIK
As for B6, the FACS (ratio +/-) in test [3] came to 7.3.

B7: anti-LRP-8 BGK.6E3.F4 [r/m IgG2a/K] (antibody, V domains shown)
VH: EVQLVESGGGLVQPGKSLKLSCAASGFTFSDYNMAWVRQAPKKGLEWVATIMYDGSRTFYRDSVKGRYTFSRDNAKSTLYLQMDSLRSEDTATYYCATGRNWFAYWGQGTLVTVSS
VL: DIIMTQSPSSLAVSAGETVTINCKSSQSLLSSGKQKNYLAWYQQKPGQSPKLLIYLASTRESGVPDRFIGSGSGTDFTLTISSMQAEDLAIYYCQQHYDTPLTFGSGTKLEIK
Turning to B7, the fold over isotype control in test [4] is 0.72 fold; in test [5] it was 0.21 fold; in test [6], 0.44 fold.

B8: anti-LRP-8 BGK-7F7 chimeric antibody (CL-105960) (antibody, V domains shown)
VH: QVTLKESGPGILQPSQTLSLTCTFSGFSLSTYGLGVGWIRQPSGKGLEWLANIWWDDAKYYNPSLKNRLTISKDTSNNQAFLKIPNVDTADTARYYCARTTKPYYFDYWGQGVMVTVSS
VL: HFVLAQPNSVSTNLGSTVKLSCKRSTANIGSNYVNWYQQHEGRSPTTLIYRDDRRPDGVPDRFSGSIDRSSNSALLTINNVQTEDEADYFCQSYSSGINIFGGGTKLTVL
The molecule B8 had an EC50 in test [7] of 3.92 nM.

B9: anti-LRP-8 BGK-6B5-2 chimeric antibody (CL-105969) (antibody, V domains shown)
VH: QVSLQESGPGILQPSQTLSLTCTFSGFSLSTFGMGVGWIRQPSGKGLEWLANIWWDDDKYYNPSLKNRLTISKDTSNNQAFLKITNVDTADTATYYCARTAKPYYFDYWGHGVMVTVSS
VL: HFVLAQPNSVSTNLGNTVKLSCKRSTGNIGSNYVNWYQQHEGRSPTTLIYRDDKRPDGVPDRFSGSFDRSSNSALLTINNVQTEDEADYFCQSYNSGINFFGGGTKLTVL
On to B9, for which the EC50 in test [7] came to 41.8 nM.

B10: anti-LRP-8 BGK-7A11 chimeric antibody (CL-105959) (antibody, V domains shown)
VH: QVTLKESGPGILQPSQTLSLTCTFSGFSLSTYGMGVGWIRQPAGTGLEWLANIWWDDDKYYNPSLKNRLTISKDTSNNQVFLKITNVDTADTATYYCARTTKPYYFDYWGQGVMVTVSS
VL: HFVLAQPNSVSTNLGSTVKLSCKRSTGNSGSNYVNWYQQYEGRSPTTMIYRDDKRPDGVPDRFSGSIDRSSNSALLTINNVQTEDEADYFCQSYSSGINIFGGGTKLTVL
B10: the EC50 in test [7] came out at 27.6 nM.

B11: anti-LRP-8 BGK-9D10-2 antibody (CL-105967) (antibody, V domains shown)
VH: EVQLVESGGGLVQSGRSLKLSCAASGFTFSNYYMAWVRQAPKKGLEWVATITTSGSRSFYPDSVKGRFTISRDNAKSSLYLQINSLKSEDTATYYCARRGPLGYFDHWGRGVMVTVSS
VL: DIQMTQSPPSLPASLGDKVTITCQASQNINKYIAWYQQKPGKAPRLLIRFTSTLESDTPSRFSGSGSGRDYSFSISNVESEDFASYYCLHYDNLPPWTFGGGTKLELK
Take B11: in test [7], the EC50 came to 0.43 nM.

B12: anti-LRP-8 BGK.5D10.E4 [r/m IgG2a/K] (antibody, V domains shown)
VH: QVQLRETGPDLVQPTQTLSLTCTVSGFSLTNYPVQWVRQPPGSGLEWLGIMWPSGAADFNPALKSRLSISRDTSKSQFFLRMDNLQTDDTAIYFCARGRGYSSPYAMDAWGQGTSVTVSS
VL: DIQMTQSPASLSASLGETVSIECLASEDIYNNLAWYQQKPGKSPHLLIHFTSNLQDGVPSRFSGSGSGTQYSLKINSLESEDGATYFCLQDSEYPLTFGSGTKLEIK
On to B12, for which the fold over isotype control in test [4] turned out to be 0.04 fold; in test [5] it was 0.16 fold; in test [6], 0.16 fold.

B13: anti-LRP-8 BGK.2C8.E6.D3 [r/m IgG2a/K] (antibody, V domains shown)
VH: QVTLKESGPGILQPSQTLSLTCTFSGFSLNTYGMGVGWVRQPSGKGLEWLANIWWDDDKFYNPSLKNRLTVSKDTSNNQAFLRITNGDTADTATYFCARILGEDIGGALDAWGQGTSVTVSS
VL: DTVLTQSPALAVSPGERVSISCRASEGVNSYMHWYQQNPGQQSKLLIYRTSNLASGVPARFGGSGSGTDFTLTIDPVEADDTATYFCQQSWNDPPTFGGGTKLELK
With B13, the fold over isotype control was found to be 0.19 fold in test [4], 0.43 fold in test [5] and 0.45 fold in test [6].

B14: anti-LRP-8 ML199-11H1.5B2 murine antibody (muFc) (antibody, V domains shown)
VH: EVQLVESGGDLVKPGGSLKLSCAASRFTFSNYGMSWVRQTPDKRLEWVATISSGGRYTYYPDSVKGRFTISRDNAKNTLYLQMSSLRSEDTAMYYCARDYLYAMDYWGQGTSVTVSS
VL: DVVMTQTPLSLPVSLGDQASISCRSSQSLVYSNGNTYLHWYLQKPGQSPKVLMYKVSNRFSGVSDRFSGSGSGTDFTLKISRVEAEDLGVYFCSQSTHVPLTFGAGTKLELK
Take B14: the EC50 in test [8] was found to be 8.36 nM. This molecule returned a fold over mIgG control in test [2] of 23.1 fold.

B15: humanized ML199-11H1.5B2VH.1a/VL.1a (antibody, V domains shown)
VH: EVQLVESGGGLVKPGGSLRLSCAASRFTFSNYGMSWVRQAPGKGLEWVATISSGGRYTYYPDSVKGRFTISRDNAKNSLYLQMNSLRAEDTAVYYCARDYLYAMDYWGQGTTVTVSS
VL: DVVMTQSPLSLPVTPGEPASISCRSSQSLVYSNGNTYLHWYLQKPGQSPQVLMYKVSNRFSGVPDRFSGSGSGTDFTLKISRVEAEDVGVYFCSQSTHVPLTFGQGTKLEIK
In turn, B15 had an EC50 in test [1] of 41.8 nM.

B16: anti-LRP-8 ML201-8F3.3D7 murine antibody (muFc) (antibody, V domains shown)
VH: EVQLVESGGDLVKPGGSLKLSCAASRFTFSNFGMSWVRQTPDKRLEWVATISSGGRYTYYPDSVKGRFTISRDNAKNTLYLQMSSLRSEDTAMYYCARDYLYAMDYWGQGTSVTVSS
VL: DVVMTQTPLSLPVSLGDQASISCRSSQSLVYSNGNTYLHWYLQKPGQSPKVLMYKVSNRFSGVSDRFSGSGSGTDFTLKISRVEAEDLGVYFCSQSTHVPLTFGAGTKLELK
B16 came in with a fold over mIgG control in test [2] of 21.1 fold.

B17: humanized ML199-11H1.5B2VH.1a/VL.1 (antibody, V domains shown)
VH: EVQLVESGGGLVKPGGSLRLSCAASRFTFSNYGMSWVRQAPGKGLEWVATISSGGRYTYYPDSVKGRFTISRDNAKNSLYLQMNSLRAEDTAVYYCARDYLYAMDYWGQGTTVTVSS
VL: DIVMTQSPLSLPVTPGEPASISCRSSQSLVYSNGNTYLHWYLQKPGQSPQLLIYKVSNRFSGVPDRFSGSGSGTDFTLKISRVEAEDVGVYYCSQSTHVPLTFGQGTKLEIK
On to B17, for which, in test [1], the EC50 turned out to be 6.83 nM.

B18: humanized ML199-11H1.5B2VH.1a/VL.1b (antibody, V domains shown)
VH: EVQLVESGGGLVKPGGSLRLSCAASRFTFSNYGMSWVRQAPGKGLEWVATISSGGRYTYYPDSVKGRFTISRDNAKNSLYLQMNSLRAEDTAVYYCARDYLYAMDYWGQGTTVTVSS
VL: DVVMTQSPLSLPVTPGEPASISCRSSQSLVYSNGNTYLHWYLQKPGQSPQVLIYKVSNRFSGVPDRFSGSGSGTDFTLKISRVEAEDVGVYYCSQSTHVPLTFGQGTKLEIK
B18 yielded an EC50 in test [1] of 19.6 nM.
